From article PMC2116103 come the findings set out here.

The experiment deals with IGF1 receptor on embryonic chick spinal cord motoneurons (chick (endogenous in E6 spinal cord motoneurons)).

As to Bovine pancreatic insulin (ligand), the neurite growth from E6 chick motoneurons in vitro, half-maximal effect stood at 20 nM.
The same measure, in the same setting: the figure for “Highly purified human IGF2 (insulin-like growth factor 2), unlabeled (from UniProt P01344 25-91) (ligand)” is 0.2 nM.
Consider “Recombinant human IGF1 (insulin-like growth factor 1), unlabeled (from UniProt P05019 22-118) (ligand)”, for which the neurite growth from E6 chick motoneurons in vitro, half-maximal response turned out to be 0.2 nM.
